The values that follow come from publication PMC4557121 (2015).

For orientation: Kd means a measure of binding affinity in units of concentration.

Sequences and labels used below:
B1: A2 [not stated] / purified TRB3 protein [not stated] (parent complex)
chain 1: GGWLTRLLQTK
chain 2: MRATPLAAPAGSLSRKKRLELDDNLDTERPVQKRARSGPQPRLPPCLLPLSPPTAPDRATAVATASRLGPYVLLEPEEGGRAYQALHCPTGTEYTCKVYPVQEALAVLEPYARLPPHKHVARPTEVLAGTQLLYAFFTRTHGDMHSLVRSRHRIPEPEAAVLFRQMATALAHCHQHGLVLRDLKLCRFVFADRERKKLVLENLEDSCVLTGPDDSLWDKHACPAYVGPEILSSRASYSGKAADVWSLGVALFTMLAGHYPFQDSEPVLLFGKIRRGAYALPAGLSAPARCLVRCLLRREPAERLTATGILLHPWLRQDPMPLAPTRSHLWEAAQVVPDGLGLDEAREEEGDREVVLYG

This experiment covers variants of B1. As to the kind of experiment: SPR; TRB3 immobilized on CM5 sensor chips.
chain 1 L4A: the dissociation constant (Kd) worked out at 4.32 µM.
As to chain 1 W3A, the Kd was 3.59 µM.
Regarding chain 1 T10A, the Kd was found to be 0.381 µM.
Turning to chain 1 L7A, the equilibrium dissociation constant (Kd) was determined as 11.8 µM.
As to chain 1 R6A, the Kd was determined as 0.000142 µM.
Turning to chain 1 Q9A, the dissociation constant (Kd) turned out to be 35.6 µM.
For the variant chain 1 K11A, the Kd was 0.0731 µM.
Then chain 1 T5A, with 0.11 µM; and chain 1 G2A, with 0.402 µM; and chain 1 G1A, with 1.64 µM.
